From PMC11779899 (Nature Communications, 2025) come the findings set out here.

The target in assay [1] is Full-length WT-IrtAB heterodimer reconstituted in nanodiscs (Mycolicibacterium thermoresistibile …, UniProt G7CBF5;G7CBF6). Description: cryo-EM structure.
Assay [2] concerns the target T1, WT-IrtABΔSID heterodimer in LMNG (Mycolicibacterium thermoresistibile …, point mutant).
T1 chain 1: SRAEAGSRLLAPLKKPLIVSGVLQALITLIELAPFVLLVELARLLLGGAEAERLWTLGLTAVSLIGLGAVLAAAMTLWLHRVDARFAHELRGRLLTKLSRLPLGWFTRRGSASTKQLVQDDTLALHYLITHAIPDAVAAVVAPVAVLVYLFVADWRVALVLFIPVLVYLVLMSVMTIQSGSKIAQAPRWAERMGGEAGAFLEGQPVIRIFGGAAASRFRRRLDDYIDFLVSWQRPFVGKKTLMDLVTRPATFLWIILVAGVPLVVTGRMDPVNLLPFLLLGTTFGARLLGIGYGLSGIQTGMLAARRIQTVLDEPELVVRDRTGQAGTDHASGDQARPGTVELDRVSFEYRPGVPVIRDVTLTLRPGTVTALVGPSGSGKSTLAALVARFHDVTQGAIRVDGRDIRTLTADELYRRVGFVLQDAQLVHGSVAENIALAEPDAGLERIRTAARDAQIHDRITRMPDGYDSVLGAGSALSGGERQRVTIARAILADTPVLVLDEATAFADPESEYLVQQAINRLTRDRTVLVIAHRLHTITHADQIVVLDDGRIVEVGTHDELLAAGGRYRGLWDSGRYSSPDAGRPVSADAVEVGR
T1 chain 2: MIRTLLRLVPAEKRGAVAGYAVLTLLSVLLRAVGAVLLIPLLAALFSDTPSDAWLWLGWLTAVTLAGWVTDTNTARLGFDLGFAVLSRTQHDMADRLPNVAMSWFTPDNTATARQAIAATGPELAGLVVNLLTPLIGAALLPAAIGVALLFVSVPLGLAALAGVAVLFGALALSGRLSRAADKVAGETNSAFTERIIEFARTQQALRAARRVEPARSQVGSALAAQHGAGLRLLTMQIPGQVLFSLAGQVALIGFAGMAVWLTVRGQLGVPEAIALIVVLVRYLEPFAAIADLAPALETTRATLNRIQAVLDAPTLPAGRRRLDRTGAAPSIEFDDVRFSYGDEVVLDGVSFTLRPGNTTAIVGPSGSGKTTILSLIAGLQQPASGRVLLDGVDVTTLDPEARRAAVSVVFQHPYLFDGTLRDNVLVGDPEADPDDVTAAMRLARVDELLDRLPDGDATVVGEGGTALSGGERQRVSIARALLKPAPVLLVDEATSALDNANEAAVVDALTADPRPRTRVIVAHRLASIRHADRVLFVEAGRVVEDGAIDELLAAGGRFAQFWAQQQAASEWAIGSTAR
In words: cryo-EM structure.

B1: IrtAB-specific sybody SybNL5 (VHH)
VHH: QVQLVESGGGLVQAGGSLRLSCAASGFPVSSSTMTWYRQAPGKEREWVAAINSYGYYTVYADSVKGRFTISRDNAKNTVYLQMNSLKPEDTAVYYCNVKDTGQMRESYDYWGQGTQVTVSA
B1: the binding result in assay [1] and in assay [2] was “binds” each time.
